Experimental data taken from the nanobody polyreactivity screen of Harvey et al. (2022).

Assay: yeast display, Sf9 membrane polyspecificity reagent, FACS + sequencing; frameworks hold sequencing errors
Outline: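 Nanobodies from a synthetic yeast display library (Saccharomyces cerevisiae BJ5465), induced 36–48 hours with galactose, were stained 1 hour at 4 °C with 10% biotinylated, detergent-solubilized Sf9 membrane reagent, enriched on streptavidin microbeads, then FACS-sorted. Anti-HA (expression) and streptavidin (reagent binding) fluorescence set low and high (top ~1%) gates. Polyreactivity labels come from the gate of origin. Genes were colony-PCR amplified, MiSeq 2 × 250 sequenced and filtered by CDR length.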

Row | Sequence | polyreactivity (PSR sort gate)
1 | QVQLVESGGGLVQAGGSLRLSCAASGYIFDYYAMGWYRQAPGKERELVAAISSSGGTTYYADSVKGRFTISRDNAKNTVYLQMNSLKPEDTEVYYCAARKSRWHRGYYYWGQGTQVTVSS | high polyreactivity
2 | QVQLVESGGGLVQAGGSLRLSCAASGRTFVPYAMGWYRQAPGKEREFVAAISSRVASTYYADSVKGRFTISRDNAKNTVYLQMNSLKPEDTAVYYCARTNPAYSIYDYWGQGTQVTVSS | low polyreactivity
3 | QVQLVESGGGLVQAGGSLRLSCAASGLIFRPYAMGWYRQAPGKERELVAGINSGGNTDYADTVKGRFTISRDNAKNTVYLQMNSLKPEDTAVYYCNREYQVTIYDYWGQGSQVTVSS | low polyreactivity
4 | QVQLVESGGGLVQAGGSLRLICAASGIILFYAMGWYRQAPGKERELVAAISSGGGTSYADSVKGRFTLSRDNAKKTVYLQMNSLKPEDTAVYYCAKTDGFYRGDGYWGQGTQVNVSS | low polyreactivity
5 | QVQLVESGGGLVQAGGSLRLSCAASGRTFGYYAMGWYRQAPGKVRELVASISSSGGNTYYADSVKGRFTISRDNAKNNVYLQMNSLKPEDTAVYYCAATYGWWPRDYYYWGQGTQVTVSS | high polyreactivity
6 | QVQLVESGGGLVQAGGSLRLSCAASGSTFDIYAMGWYRQAPGKERELVAAISVSDVDTYYADSVKGRFTISRDNAKNTVYLQMNSLKPEDTAVYYCAAETPTHDEWGQGTQVTVSS | high polyreactivity
7 | QVQLVESGGGLVQAGGSLRLSCAASGRIFVPYLMGWYRQAPGKERELVASISDSDTSTYYADSVKGRFTISRDNAKNTVYLQMNCLKPEDTAVYYCNVDYWGQGTQVTVSS | low polyreactivity
8 | QVQLVESGGGLVQAGVSLRLSCAASGRTFGYYAMGWYRPAPGKETELVAASTLSGGSTYYADSVKGRFTISRDNAKNTVYLQMNSLKPEYTAVYYCAAKWWHFYPYDYWGQGTQVTVSS | high polyreactivity
9 | QVQLVESGGGLVQAGGSLRLSCAASGRTFGYNAMGWYRQAPGKERELVATITSSDSTYYADSVKGRFTISRDNAKNTVYLQMNSLKPEDTAVYYCAADDVGWGYYVYSYPYDYWGQGTQVTVSS | low polyreactivity
10 | QVQLVESGGGLVQAGGSLRLSCAASGRTFPYYAMGWYRQAPGKERELVAAISKRGGTTYYADSVKGRFTISRDNAKNTVYLQMNSLKPEDTAVYYCAKDSAYGWVAYDYWGQGTQVTVSS | high polyreactivity
11 | QVQLVESGGGLVQAGGSLRLSCAASGSIFIDYAMGWYRQAPGKERELVAAISWSGGSTYYADSVKGRFTISRDNAKNTVYLQMNSLKPEDTAVYYCAAYSHVSIWYDYDYWGQGTQVTVSS | low polyreactivity
12 | QVQLVESGGGLVQAGGSLRLSCAASGSTFSYSTMVWYRQPPGKERELVATISRRGASTYYADSVKGRFTISRDNAKNTVYLQMNSLKPEDTAVYYCAKSYYYGRSATRPEYDYWGQGTQVTVSS | high polyreactivity
13 | QVQLVESGGGLVQAGGSLLLSCAASGSTFYLYAMGWYRQAPGKEMELVASISQSGGSTFYADSVKGRFTISRDNAKYTVYLQMNSLKPEDTAVYYCAADPNRSTDTVVPGFDYWGQGTQVTVSS | high polyreactivity
14 | QVQLVESGGGLVQAGGSLRLSCAASGRTFGYNAMGWYRQAPGKERELVASISYSGGSTYYADSVKGRFTISRDTAKNTVYLQMNSLKPEDTAVYYCSAKYWYWQSPSKYYYWGQGTQVTVSS | high polyreactivity
15 | QVQLVESGGGLVQAGGSLRLSCAASGRIFLRNDMGWYRQAPGKERELVAGISSDGSTYYADSVKGRFTISRDNAKNTVYLQMNSLKPEDTAVYYCAAERWGNPTDYQFWRPYDYWGQGTQVTVSS | low polyreactivity
16 | QVQLVESGGGLVQAGGSLRLSCAASGFTFNRYAMGWYRQAPGKERELVATITSGGNTYYADSVKGRFTISRDNAKNTVYLQMNSLKPEDTAVYYCNKRGWYSVYRRDYWGQGTQVTVSS | high polyreactivity
17 | QVQLVESGGGLVQAGGSLRLSCAASGFIFDYYAMGWYRQAPGKEWELVAGITRDGSTNYADSVKGRFTISRDNAKNTVYLQMNSLKPEDTAVYYCAAGPPRTRYRNARFDYWGQGTQVTVSS | high polyreactivity
18 | QVQLVESGGGLVQAGGSLRLSCAASGITLQYYAMGWYRQAPGKERQLVAGITSGGGTYYADSVKGRFTISRDNAKNTVYLQMNSLKPEDTAVYYCAARPWRSRYYGGLGRRFDYWGQGTQETVSS | high polyreactivity
19 | QVQLVESGGGLVQAGGSLRLSCAASGSIFFTYTMGWYRQAPGKERELVAAISASGGSTYYADSVKGRFTISRDNAKNTVYLQMNSLKPEDTAVYYCNARRRTSFIMYYWGQGTQVTVSS | high polyreactivity
20 | QVQLVESGGRLVQAGGSLRLSCAASGRTFTRNAMGWYRQAPGKERELVAAISWSGGSTYYADSVKGRFTISRDNAKNTVYLQMNSLKPEDTAVYYCAARIWYYNYWGQGTQVTVSS | high polyreactivity
21 | QVQLVESGGGLVQAGGSLRLSCAASGSIFTTNAMGWYRQAPGKERELVARIDRAGSTYYADSVKGRFTISRDNAKNTVYLQMNSLKPEDTSVYYCAVEAVLSRPYATKFDYWGQGTEVTVSS | low polyreactivity
22 | QVQLVESGGGLVQAGGSLRLSCAASGRTLRWYAMGWYRQAPGKERELVAAINWSGTSTYYADSVKGRFTISRDNAKNTVYLQMNSLKPEDTAVYYCAKRVTWNYDWGQGTQVTVSS | high polyreactivity

Row | Sequence | polyreactivity (PSR sort gate)
23 | QVQLVESGGGLVQAGGSLRLSCAASGITLYNYAMGWYRQAPGKERELVAAISLSGGRTYYADSVKGRFTISRDNAKNTVYLQMNSLKPEDTAVYYCAADWLNSDPYNYWGQGTQVTVSS | low polyreactivity
24 | QVQLVESRAVLVQAGGSLRLSCAASGSIFYVYAMGWYRQAPGKERELVAAISSSSDSTYADSVKGRFTISRDNAKNTVYLQMNSLKPEDTAVYYCATAWYYGIVRGGLPYDYWGHGTQVTVSS | low polyreactivity
25 | QVQLVESGGGLVQAGGSLRLSCAASGLILGYYAMGWYRQAPGKERELVATIRRGASTYYADSVKGRFTISRDNAKNTVYLQMNSLKPEDTAVYYCAADTERSLAGGMYYWGEGTQVTVSS | low polyreactivity
26 | QVQLVESGGGLVQAGGSLRLSCAASGFTFGLYVMGWYRQAPGKERELVAVISRSGGGTYYADSVKGRFTISRDNAKNTVYLQMNSLKPEDSAVYYCAKPFSYITGWYNYWGQGTQVTVSS | high polyreactivity
27 | QVQLVESGGGLVQAGGSLRLSCAASGFIFARNVMGWSRQAPGKERELVAAISWSGGSTYYADSVKGRFTISRDNAKNTVYLQMNSLKPEDTAVYYCNKQFPFSKYYIMGYWGQGTQVTVSS | high polyreactivity
28 | QVQLVESGGGLVQAGGSLRLSCAASGSTFDTYAMGWYRQAPGKERELVAAISVSGTSTSYADSVKGRFTISRDNAKNTVYLQMNSLKPEDTAVYYCNATDFSRNPGYARPEYDYWGQGTQVTVSS | low polyreactivity
29 | QVQLVESGGGLVQAGGSLRLSCAASGSTFLYVMGWYRQAPGKERELVAAISESGGSTYYADSVKGRFTISRDNAKNTLYLQMNSLKPEDTAVYYCAADLPTGLQYRYYRVDYWGQGTQVTVSS | low polyreactivity
30 | QVQLVESGGGLDQAGGSLRLICDAYGSTFNWNAMGWYRQAPGKERELVAAISSGGSTNYADSVKGRFTISRDNAKNTVYLQMNSLKPEDTAVYYCARQHSRWYSGYKYNYWGQGTQVTVSS | high polyreactivity
31 | QVQLVESGGGIVQAGGSLRLSCAASGSTFSYNAMGWDRQAPGKERELVAAITSRGGSTRYADSVKGRFTISRDNAKNTVYLQMNSLKPEDTAVYYCARPYSYYPYSTVNYWGQGTQVTVSS | high polyreactivity
32 | QVQLVESGGGLVQAGGSLRLSCAASGFTFGTYAMGWYRQAPGKERELVARITSGGRTNYADSVKGRFTISRDNAKNTVYLQMNSLKPEDTAVFYCNAVNGYYWGSRFDYWGQGTQVTVSS | high polyreactivity
33 | QVQLVESGGGLVQAGGSLRLSCAASGSNFHPYAMGWYRPAPGKEREFVAAITFRGSTYYADSVKGRFTISRDNAKNTVYLQLNSLKPEDTAVYYCAARYNIFRRGSRNYDYWGQGTEVTVSS | high polyreactivity
34 | QVQLEESGGGLVQAGGSLRLSCAATGSIFYSYAMGSNRQAPGKEMELVATISTGGSTDYADSVKGRYTISRDNAKNTVYLQMNSLKPEETAVYYCATSGPYWWLVYWGQGTQVTVSS | low polyreactivity
35 | QVQLVESGGGLVQAGGSLRLSCAASGRIFYSYAMGWYRQAPGKELELVAAIDESDGSTYYADSVKGRFTISRDNAKNTVYLQMNSLKPEDTAVYYCAADSLLVLFDYWGQGTQVTVSS | low polyreactivity
36 | QVQLVESGGGLVQAGGSLRLSCAASGYTFTGYAMGGYRQAPGKERELFATITRGGSTYYADSVKGRFTISRDNAKNTVYLPMNSLKPEDTAVYYCATRVQYYVKSTTQYGYGYWGQGTQVTVSS | low polyreactivity
37 | QVQLVESGGGLVQAGGSLRLSCAASGNIIDANAMGWYRQAPGKERELVAAITSSGGSTYYADSVKGRFTISRDNANNTVYLQMNSLKPEDTAVYYCAKSHAIYYWWDESWGHGTQVTVSS | low polyreactivity
38 | QVQLVESGGGIVQAGGSLRLICAASGSIFDGYAMGWYRQAPGKERELVAAISASGVRTYYADSVKGRFTISRDNAKNTVYLQMKSLKPEDTAVYYGAAAVYYGQSVWYYYWGQGTQVTVSS | high polyreactivity
39 | QVQLVESGGGLVQAGGSLRLSCAASGITFQYYAMGWYRQAPGKERELVASISYRGGRTYYADSVKGRFTISRDNAKNTVYLQMNSLKQEDTSVYYCAADWRYTTFWTLRYYGFDYWGQGTQVTVSS | high polyreactivity
40 | QVQLVESGVGLGQAGGSLRLSCAASGRIFSRYAMGWYRPAPGKERELVATITRRGGSTSYADSVKGRFTISRDNAKNTVFLQMNCLKPEDTAVYYCAAQSFYGIYYGKQDYDYWGQGTQVTVSS | high polyreactivity
41 | QVQLVESGGGLVQAGGSLRLSCAASGFTYIDYAMGWYRQAPGKERELVAAITSRGGTTYYADSVKGRFTISRDNAKNTVYLLMNSLKPEDTAVYYCNAGSSFWVSRIGYDYWGQGTQVTVSS | high polyreactivity
42 | QVQLVESGVGLVQARGSLRLSCASSGSILIYNAMGWYRQAPGKVRELVAGISRRGDSTYYADSVKGRFTISRDNAKKTVYLQMNSLKPEDTAVYYCAALGKYIVAWSGDYWGQGTQVTVSS | low polyreactivity
43 | QVQLVESGGGLVQAGGSLRLSCAASGSIFSKYAMGRYRPAPGKERELVAAISRRGGDTYYADSVKGRFTISRDNAKNTVYLQMNSLKPEDTAVYYCAAYQYYLYDYWGQGTQVTVSS | high polyreactivity
